A short description of this series: yeast display, Sf9 membrane polyspecificity reagent, FACS + sequencing; frameworks hold sequencing errors. Put shortly: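 Galactose induction of a Saccharomyces cerevisiae BJ5465 synthetic nanobody display library ran 36–48 hours. The cells were then stained for 1 hour at 4 °C with 10% biotinylated, detergent-solubilized Sf9 membrane reagent, pulled down on streptavidin microbeads and FACS-sorted into low and high (top ~1%) gates on expression and reagent-binding fluorescence. Labels for polyreactivity follow the gate of origin.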
With “QVQLVESGGGLVQAGGSLRLSCAASGLTFLRNGMGLYRQAPGKERELVASITRSGTRTYYADSVKGRFTISRDNAKNSVYLQMNSLKPEDTAVYYCAARAYVSHYGVSNFGFYYWVQGTQVTVSS”, the “polyreactivity (PSR sort gate)” value was “high polyreactivity”.

In the case of “QVHLVESGGGLVQAGGSLRLSCAASGSIFHGYSMGWYRQAPGKERELVAAINSGDGSTYADSVKGRFTISRDNAKNTVYLQMNSLKPEDTAVYYCATDGTYYEHDYWGQATQVTVSS”, the “polyreactivity (PSR sort gate)” value was “low polyreactivity”. The result for “QVQLVESGGGLVQAGGSLRLCCAASGRTFPYYAMGWYRQAPGKERELVAAISSSGGRTYYADSVKGRFTISRDNAKNTVYLQMNSLKPEDTAVYYCNVDAWYPYQGFLVGYYYWGQGTQVTVSS” reads “low polyreactivity”. Under “QVLLQESGAGLVQAGGSLRLSCAASGTISTDIRMGWYRLAPGKEREFVASIDGCSTTYYADSVKGRFTISRDNAKNSVYLQLNSLKPEDTAMYYCAAREDTEFYLYYWGQGNQVTVSS” stands “low polyreactivity”; under “QVQLVESGGGLVQAGGSLRLSCAASGSTINYYAMGWYRQAPGKERELVAAISSGTSTYYADSVKGRFTISRDNAKNTVYLQMNSLKPEDTAVYYCARRYYYQYRYDYWGQGTQVTVSS”, “high polyreactivity”.

With “QVQLVESGGVLVQAGGSLRLSCAASGIIFYRNAMGWYRQAPGKERELVAAITSSGGRTYYADSVKGRFTISRDNAKNTVYLQMNSLKPEDTAVYYCAATRLYWKIFYGDGDYWGQGTQVTVSS”, the “polyreactivity (PSR sort gate)” value is on record as “high polyreactivity”. As for “QVQLVESGGGLVQAGGSLRISCAASGRIFTRNAMGWYTQAPGNETELVAAITSGGSTNYADSVKGRFTISRDNAKNTVYLQMNSLKPEDTAVYFCYAVYYPYRIWGRVRPSYGYWGQGTQVTVSS”, the “polyreactivity (PSR sort gate)” value is listed as “high polyreactivity”. As to “QVQLVESGGGLVQAGGSLRLSCAASGRIFGNYYKVWFRQAPGKERDLVAAISGGGSTYYADSVKGRFTISRDNAKNTVYLQMNSLKPEDTGVYYCAARFLWSVFGRKGGYWGQGTQVTVSS”, the “polyreactivity (PSR sort gate)” value is recorded as “low polyreactivity”. “QVQLVESGGGLVQAGGSLLLSCAASGIIFSSYVMGWYRQAHGKERELVAAISKSGARPSYADSVKGRFTISRDNAKNTVYLQMNSLKPEDTAVYYCAAAWHTAYWVGSDSQGGGYWGQGTQVTVSS”: the “polyreactivity (PSR sort gate)” value is “low polyreactivity”. The result for “QVQLVESGGGLVQAGGSLRLSCAASGSTIPSYAMGWYRQAPGKERELVASITYSDGTTRYADSVKGRFTISRDNAKNTVYLQMNSLKPEDTAVYYCAKYYYTSIVGYDSWGQGTQVTVSS” reads “low polyreactivity”; that for “QVQLVESGGGLVQAGGSLRLSCAAYGIIFWINSMGRYRPAPGKEREVVAAITSGGTTYYADSVKGRFTISRDNGKNTVYLQMNILKPEDTAVYYCAARVRGARDYYWGQGTQVTVSS”, “high polyreactivity”. Under “QVQLVESGGGLVQAGGSLRLSCAASGRTFGYYAMGWYRQAPGKERELVAAISSAGSSTYYADSVKGRFTISRDNAKNTVYLQMNSLKPEDTAVYYCAASSRSFIRVYYWGQGTQVTVSS” stands “high polyreactivity”. As for “QVQLVESGGGLVQAGGSLRLSCAASGSTFKYYTMGWYIQAPGKERELVAAITWRGGSTYYADSVKGRFTISRDNAKNTVYLQMNSLKPEDTAVYYCNVLQRYGASRYDYWGQGTQVTVSS”, the “polyreactivity (PSR sort gate)” value is “high polyreactivity”.

On to “QVQLVESCGGLVQAGGSLRLSCAASGFIFTYYVMGWYRQAPGKERELVATISISDGTTYADSVKGRFTISRDNAKNTVYLQMNSLKPEDTAVYYCAADNSFTDNYWGQGTQVTVSS”, for which the “polyreactivity (PSR sort gate)” value is on record as “low polyreactivity”.

As for “QVQLVESGGGLVQAGGSLRLSSAASGSTFIGNAMGWYRQAPGTARELVAAITRSGGSTFYADSVKGRFTISRDNAKNTVYLQMNSLKPDDTAVYYCASKGNPYRVPCSSYPKVNYWGQGTQVTVSS”, the “polyreactivity (PSR sort gate)” value is “high polyreactivity”.

“QVQLVESGGGLVQAGGSLRLSCAASGSIFSVNTMGWYRQAPGKERELVAAISGSGGSTYYADSVKGRFTISRDNATNPVYLQMNSLKPEETAVYYCAKVYRRGAGYNYWGQGTQVTVSS”: the “polyreactivity (PSR sort gate)” value is reported as “high polyreactivity”.

Consider “QVQLVESGGGLVQAGGSLRLSCAASGSTFVWNAMGWSRQAPGKERQLVAAIDSGGSTNYADSVKGRFTISRDNAKNTVYLQMNSLKPEDTAVYYCATDQGYRYLKIYVYGDAFDYWGQGTQVTVSS”, for which the “polyreactivity (PSR sort gate)” value is listed as “low polyreactivity”.

On to “QVQLVESGGGLVHAGGSLRLSCAASGSIFVGYAMGWYRQAPGKERELVARISRSGTSTYYADSVKGRFTISRDNAKNTVYLQMNSLKPEDTAVYYCNATVSRYSGYQRGHYWRYDYWGQGTQVTVSS”, for which the “polyreactivity (PSR sort gate)” value is “high polyreactivity”.

Consider “QVLLQESGGGLVQAGVSLRLSCAASGNIFSAGGMGWYRQAPVNERELVAGIGTGTSTNYADSVKGRFTISRDNAKNTVYLQMNSLKPEDTAVYYCAAAYYSGLSHWYWGQGTQVTVSS”, for which the “polyreactivity (PSR sort gate)” value is “low polyreactivity”.

As to “QVQLVESGGGLVQAGGSLRLSSASSGSTFWIYAMGWYRQAPGKEREMVASIRRACNTYADSVKGRFTISRDNAKNTVYLQMNSLKPEDTAVYYCNARLYLPYGYRRSNGYESDYWGQGTQVTVSS”, the “polyreactivity (PSR sort gate)” value is on record as “high polyreactivity”. For “QVQLVESGGGLVQAGGSLRLSCAASGSTFAYYAMGWYRQAPGKERELVAVISVRGGSTYYADSVKGRFTISRDYAKNTVYLQMNSLKPEDTAVYYCAADTFAGYYYWGQGTQVTVSS”, the “polyreactivity (PSR sort gate)” value is listed as “high polyreactivity”. As for “LVQLVESGGGLVQAGGSLRLICAASGSIFSGYAMGWYRQAPGNERELVAAITRSGGRTYYADSVKGRFTISRDNAKNTVYLQMNSLKPEDTAGYYCATLPRYYGYWGQGTQVTVSS”, the “polyreactivity (PSR sort gate)” value is on record as “high polyreactivity”.

Turning to “QVQLVESGGGLVQAGGSLRLSFAASGSTFSRYAMGWYRQAPGKERELVAAISSGGGTNYADSVKGRFTISRDNAKNTVYLQMNSLKPEDTSVYYRAAVTVDFLKGYGWWFWQISDFWGQVTQVTVSS”, the “polyreactivity (PSR sort gate)” value was “low polyreactivity”.

With “QEQLQESGGGQVQAGGSLLLSCAASGNIIRYYYMGWYRQAQGKVRELVAAITYGTSTNYADSVKGRFTISRDNAKNTVYLQMNSLKPEDTAVYYCAVDVNYGDPLDNWGEGTQVTVSS”, the “polyreactivity (PSR sort gate)” value is “high polyreactivity”. As to “QVQLVESGGGLVQAGGSLRLSCAGSGFIFAQNTMGWYRQAPGKERELVAAITRRGGSTYYADSVKGRFTISRDNAKTTVYLQMNSLKPEDTAVYYCARATVGAWRKMYSWGQGTQVTVSS”, the “polyreactivity (PSR sort gate)” value is “high polyreactivity”. The result for “QVQLVESGGRLVQAGGSLRLSCAASGITLNRNAMGWYRQEPGKESELVARISRRGGTTYYADSVKGRFTISRYYAKNTVYLQMNSLKPEDTAVYYCAASYSDRKLTDYWGQRTQVTVSS” reads “high polyreactivity”; that for “QVQLVESGGGLVQAGGSLRLSCAASGSTFTGYAMGWYRPAPGKEREFVAAISRSGGSTYYADSVKGRFTISRDNAKNTVYLQMNSLKPEDTAVYYCNARGFTRYTVGRNYWGQGTQVTVSS”, “high polyreactivity”; that for “QVQLVESGGGLVQAGGSLRLSCAASGFIFTWYDMGWYRQAPGKERELVAAISRSGGSTYYADSVKGRFTISRDNAKNTVYLQMNSLKPEDTAVYYCIVYRSKKRYGWGEDDYWGQGSQVTVSS”, “high polyreactivity”.

For “QVQLVESGGGVVQAGRSLRLSCAASGSTFWAYLMGWYRQAPGIERELVASISRGGSTNYTDSVKGRFTISRDNAKNTVYLQMNSLKPEDTEVYYCAKRPYPYKYDYWGQGRQVTVSS”, the “polyreactivity (PSR sort gate)” value is reported as “high polyreactivity”.

On to “QVQLVESGGGLVQAGGSLRLSCADSGIIFLEYAMGWYRQAPGKERELVAAISSDDGSSTYYADSVKGRFTISRDNAKNTVYLQMNSLKPEDTAVYYCAAYGGGGYYYDYEYWGQGTQVTVSS”, for which the “polyreactivity (PSR sort gate)” value is on record as “high polyreactivity”.

(Values after the nanobody polyreactivity screen of Harvey et al. (2022).)
